Assay results taken from a protein production outcome set (Wang et al. 2014).

Assay: label from the status in PepcDB records

Row | Sequence | protein production
1 | MQVLVVGANGQVGRLLMQQLLAAGDTPVAGLKPTEDGEEWADQGLMVCKMDLLAKPEQLASAIMGMDAVIFAAGSGGQTKADMTLLIDLDGAVKTMQAAEIAGVSRFLMISMLFAEDRNRWADPLKPLYVAKFYADNWLVRQTHLDYTIVQPGALSFHAGTGLIKSDPLAVGSVPRADLAAFLVAALHAPQTIGKTIPLLSGDQSIAQVIDQL | failed
2 | MDEVLLVKKLVEDAIVPTRGSKCAAGIDLYSNTNFIIQPHERFLVSTGVSVQIPHQCYGRIAPRSSLALKYGIDVGAGVIDEDYRGEIKVILFNHSNEIFNGRKGDRIAQLIIERISYCRISEVKELNTTDRGTNGFGSTGK | not failed
3 | TPHLVNLNEDPLMSECLLYYIKDGITRVGQADAERRQDIVLSGAHIKEEHCIFRSERSNSGEVIVTLEPCERSETYVNGKRVSQPVQLRSGNRIIMGKNHVFRFNHPEQARAEREKT | not failed
4 | AGSATITYSVLEETDRGSLVGNLAKDLGLSLRELITRGAQILSKGNKQLLQLEQKSGNLLLKEKLDREELCGSTNPCILHFQVLLKSPVQFIQGEIQLQDVNDHAPEFMEDE | not failed
5 | MSRRNGGLFPTDLQTIARDIGSLLLMEAGLMTITAAVALGFQEFYAAFGFFTAAGMTAGVGGLANRGFSDAPAPQMKHGMVIAAGGWLLVAAFGSLPFLLTAWFTPPAVMDTFVPVGTDTSTWAPIRVGGTTTLSSLAYFRNPLHAFFESMSGWTGSGLTMAIHEPSLPRAVQWWRSFIQYVGGVGVIVLTVSILSRPGSGSYALYQSEAREEKIHPSVVSTVRTVWKLVVGYTVLSFALLFGAILASDSEYAESLPLWEVAWQALNHAMTGLTTGGFSVTDNSIATYNSPLVETVLLPIMILGAIAFPVHYVVLHDRQVRELVTDLQTRWLFILLTVGVVGLSVQNAWSVPATTEAFATQSFLPVSVPMLNAAQLDAVRDSTFQWVSALSCTGFQSAPIGRWLAGGKVLVAGAMVLGGAAGSTVGGIKIIRGYTIVRGIIWQFSRVFLPTNAVITARIGNRTLDRESMEREFSEAAIVTLLWLIILIISSVVLTNVAGPAFGYADALFEVASAQGNVGLSSGITGPSMPAIAEGMFVLNMWVGRLEIIPILVFIRAGLYGLDP | failed
6 | MTNHQKRLAVPKSWPVERKEEAYTTKAAAGPHGEEGVPLLIVLRDVLGYVDSKKEARYALEQDSILINGTAVSDERRPVGMFDILAFDEREEYYRIFPDEGGRLSLTPIDEDAAGSKLGKIVGKTQVAGGDTQLSLHDGETLLVEDATAYDTNDSIVVSNDGEEIVAHFTYEEGALVTAVSGAHAGRIGTIDEIQVTPGSSANNVLIDAENDDERFETVEEYVVVIDENFTDGGDDE | failed
7 | RAGHIEVAEVEGMSFPVKLDTGADVSSINAKDIKLFQKDGKDMVSFTYENDLGMQKAFTREVVDVMKITAKKGEKANVRPVVEMHVKLGELEKKIRVNLQDRGRFHYSMILGKNFLKHGALVASETNYIVTKK | not failed
8 | MKRSFSMMTDKRKLHRKKMKRKKRRRRLMFGCLLLFLVLAASGLGYASFLMHKMKTAMNEAYEEIGAKKNTGDHLDPKKDSFTVLFIGIDDSKTRNFKSDTRSDALILAAFNADTQLVKMVSIPRDSYVYIPCEDKYDKITHAHAYGGTKCTIESIERLFDIPIDYYVKMNFYAFIDVVDALGGIEVEVPYNIREKDAEDNRNAIVLKKGYQHLNGEEALALARTRKKDNDIERGKRQQQILQAILKKASHAGSISKYDDVIEAIGSNMKTNFTFDDIKALIYYVSTGNPLQTESLVLQGTDDNEGVYYYRLDEESVQQISDALRSQLHASAGTQLEKERN | failed
9 | MWSCPTLNAPRAAQKWLPVRATPHLCVLHMSRLMLSSTLIDELSYVRKDQLETSALFELIAHRYERHSIAITANEPFSGWSDAMTVAAIDRLVHHSTIIEMNGESYRKRAAVARGASTQNANDEPEDPPNRSSLEHHHHHH | failed
10 | MSLTLRVVPELYCFDINVSQSFFVDVLGFEVKYERPDEEFVYLTLDGVDVMLEGIAGKSRKWLSGDLEFPLGSGVNFQWDVIDIEPLYQRVNESAADSIYLALESKSYQCGDSIATQKQFMVQTPDGYLFRFCQDIHEGHHHHHH | not failed
11 | MIIYDQHVHTSFSFDSNEKMEDYMKLAGQDFVSTEHLEFNNPEVQNHDSIPDYTKYVAEIERLKKATGKRVHKGIEIGMSAGQADKIKDYLAHHTFDIKLLSFHQDGTKDFGSNMVSHLDPLQVTDQYYQLMWKGINEFHDADVLAHFDYGVRRLSLTSGQFSTTAGVLLTNIFKVAIQNNLAFELNTKSMYKYHNIGLYDYAIEIYKQLGGKRYTIGSDAHDATHYEDHFRDALDMLKAHDIHHINVYRQGAMTVVPIDDIPEDL | failed
12 | MKNMVIVLTGVTVVAGALLGYVNELTKEPIAQANAKALSDAIAIVVPGFDNNPAEAPETIELEGVTYKIYKATKGGEFIGAAVESSANGFGGALNVLVGFDKEGNIIDYSLLSHAETPGLGSKAADWFKKGGKGDITGMNPGQKALVVNKDGGQIDAITASTITTRAFLKAVNNAYAAYSGQNVDGSSGATQQVSETAADDPKAAKAQCEGTQDCCGQACDSAACKAACGGKCDPANCDKADCKKAECPKQDCKNKK | failed
13 | HPHIQLLKSNRELLVTHIRNTQCLVDNLLKNDYFSAEDAEIVCACPTQPDKVRKILDLVQSKGEEVSEFFLYLLQQLADAYVDLRPWLLEIGFS | not failed
14 | MPKVLNVVFFFSPLIISAVITYFTWVKIETILIDFGLWLAMVTAFYIFLNFYLLLRRSKRYNIEVADEMTGFKIAAFVTSFNEDPEIVERTLLSVKDAVSNQGDVFLLDDSTDENISRRLREFCTRNDINYVHRKDRRGYKAGAINDALRRIQGYDLVAIFDADQRPVRDFFKQVLPYFKDPKIAFVQVPQNYSETFSGISTGAKYQQEPFLRIIMRGRSGRSAFSLGSGTVFRIQALREVGYLPENSITEDAAVSIKLHSKGYNSVYIDVPLIWYGEPPQDLNAYLIQQSRWALGYFQLTKDIIKADLSFLKYYDYFSGFLYWIKEGPLAIVEFISPIVFLLTEIPILRINPILYLLVYLPYLFISIGIFVAGIREETEYGLKGFFYHQCVEFLEFTAVTASFISWLLGRKRPFRVTPKGGGRLNLRILLPHIVILLLLIVSTVKGILWLISANSNFLLYYAIIVNVFWAIYHIPFFLGGILISARFKTRENLTKVVYY | failed
15 | SSQQRPARKLPSLLLDPTEETVRRRCRDPINVEGLLPSKIRINLEDNVQYVSMRKALKVKRPRFDVSLVYLTRKFMDLVRSAPGGILDLNKVATKLGVRKRRVYDITNVLDGIDLVEKKSKNHIRWIGSDLSNFGAVPQQKKLQEELSDLSAMEDALDELIKDCAQQLFELTDDKENERLAYVTYQDIHSIQAFHEQIVIAVKAPAETRLDVPAPREDSITVHIRSTNGPIDVYLCEVEQGQTSNKRSEGVGTSSSESTHPEGPEEEENPQQSEELLEVSN | failed
16 | LRGFVPSSVWLERGVFPPSNEEVIKLGLSPTSMVARLKRQRLADGVVMAIEMSTMPVAYLPDPQAVGTSLYAHLDATGHSVVRALQHIRAVNASGDVAQLAGIRPGEAMLLITRIGFNADNVAIELTDTYCRNDYYDFVAELKR | not failed
17 | MGVRLVLRLVPRLVTRFTPLGLGMVALGCALVASFYSPPSFASIWDLLTNKRGVSQASVSKDSPRIELVGTLPADTELELIGFYYSSICTEKEMYFPSGDIANPQWRTKGTTSQLRQVVTSLHNASHFTQSVALQGGGACEWQLTNIQLNMSLLPSHRLWQEAQSLKKQYLAELPVAKVKDEALEKDAFKQSFDLIPTAKEADAASADSNDATITFSPIYYPIYSYAPEDKQPFDVGLKSSLQREVSDRWSLQHSRRIRLADERVTRVNFTPQIAEDYAVNIHILDRKSKVSYPDGTEFTYIKAGLRLYPYGSAESRFNSLQRSARLEDKRQLAKIYDSGIEHVFEGDKAKAEVLYRELGEAGDMESINWLRERARWGYIKDGQYWLARAAKLGDIQAQLELINQPLSVIPQGKVNTGQAKIREQQAWQTLTELTKQGIPQAVSTMAYYQVFSCSPYFNTTAALDNYRKSVKAQPDLARDAAETYYYFKEDLAQAREFFEIAAEREIDVAAEYAGILLAAEQRDPKRARYWLEKVVTAGDKQYIQQDVLGYAYFRLASLLDAGEGGDADPKRAITLYQQSIELGEGFSNDYQAKAKERLQSLQERHL | failed
18 | MPDMPPTETNAIQDRLPRTTNSVEDTMALGARIAQGLSPGAVVALYGDLGTGKTHFVKGVAQGLGLPPAEVRSPTFTILAVHDDGDRPLYHFDAYRVQTPDEFVELGFETYVHGDGLTCIEWAGRVADLLPADTVPLQFHHVAPSTRRITLGAPDSSSSEDDR | failed
19 | MKRSLRVGSVAGIGIFLHWTFLLLVAAIFAYYYVQSQSLGAALSGMGLILGVFVCVILHELGHALTARRFGVPTRSITLYPIGGLARLERIPSEPMKEFWIAIGGPAVNVVIAFALALVLLVTGGTLAPVALEAPGSHALASLMWINAVLAVFNMLPAFPMDGGRVLRALLALRWDYAQATQTAANVGQGMAVLFGLIGIMTWNPVLLFIALFVYVGAQQESKQAMYRAFTEGTPVREAMVTRFATLTVDDTLDDAVDALLAGTDHDFPVLEAGTVVGLLRRKQLIQALSEHGRDTPVAEVADADCFTTAPSAPLDEVFQQMNARSCSTVPVVDGGQLVGLLTLENVGELIMVSSALETRSHSRVPRDQLSEAPLRERPDGAASSGAPPVP | failed
20 | MDRRDAMGLSGSGSYYIHRGLSGSGPPTFHGSPQQQQGLRHLPNQNSPFGSGSTGFGSPSLHGDPSLATAAGGAGALPHHIGVNMIAPPPPPSETPMKRKRGRPRKYGQDGSVSLALSSSSVSTITPNNSNKRGRGRPPGSGKKQRMASVGELMPSSSGMSFTPHVIAVSIGEDIASKVIAFSQQGPRAICVLSASGAVSTATLIQPSASPGAIKYEGRFEILALSTSYIVATDGSFRNRTGNLSVSLASPDGRVIGGAIGGPLIAASPVQVIVGSFIWAAPKIKSKKREEEASEVVQETDDHHVLDNNNNTISPVPQQQPNQNLIWSTGSRQMDMRHAHADIDLMRG | failed
21 | NFDTNMFKLENYVKEKYSLESLEIIPNEFDDTPTILSERISQVAAGVLRNLIDDNMKIGFSWGKSLSNLVDLIHSKSVRNVHFYPLAGGPSHIHAKYHVNTLIYEMSRKFHGECTFMNATIVQENKLLADGILQSRYFENLKNSWKDLDIAVVGIGDFSNKGKHQWLDMLTEDDFKELTKVKTVGEICCRFFDSKGKEVYENLQERTIAISLEDLKNIPQSLAVAYGDTKVSSILSVLRANLVNHLITDKNTILKVLEEDGDL | not failed
22 | MVVNKRLILILLFILNTAKSDELSWKGNDFTLYARQMPLAEVLHLLSENYDTAITISPLITATFSGKIPPGPPVDILNNLAAQYDLLTWFDGSMLYVYPASLLKHQVITFNILSTGRFIHYLRSQNILSSPGCEVKEITGTKAVEVSGVPSCLTRISQLASVLDNALIKRKDSAVSVSIYTLKYATAMDTQYQYRDQSVVVPGVVSVLREMSKTSVPTSSTNNGSPATQALPMFAADPRQNAVIVRDYAANMAGYRKLITELDQRQQMIEISVKIIDVNAGDINQLGIDWGTAVSLGGKKIAFNTGLNDGGASGFSTVISDTSNFMVRLNALEKSSQAYVLSQPSVVTLNNIQAVLDKNITFYTKLQGEKVAKLESITTGSLLRVTPRLLNDNGTQKIMLNLNIQDGQQSDTQSETDPLPEVQNSEIASQATLLAGQSLLLGGFKQGKQIHSQNKIPLLGDIPVVGHLFRNDTTQVHSVIRLFLIKASVVNNGISHGLEHHHHHH | not failed
23 | NIGSAVPRGELVLAMEKIGKLLQERGGSVVIRGHTDGRQFKGEANDNWRLSMDRAHSAYYMLVRGGLSEERVKQVSGFADRRLQVPSNPLADANRRIEILLEADR | failed
24 | MQMDSAQNQFNKRARLFEDPELKDAKVIYPSNPESTEPVNKGYGGSTAIQSFFKESKAEETPKVLKKRGRKKKNPNPEEVNSSTPGGDDSENRSKFYESASARKRTVTAEERERAVNAAKTFEPTNPYFRVVLRPSYLYRGCIMYLPSGFAEKYLSGISGFIKLQLGEKQWPVRCLYKAGRAKFSQGWYEFTLENNIGEGDVCVFELLRTRDFVLEVTAFRVNEYV | failed
